The results in this text go back to US20260034244A1.

For the assay, the target named is VEGFR-2.

The substance “VEGF-A (from UniProt P15692 27-191) (ligand)” had an EC50 (read off the curve) of 5 ng/mL.

A word on the EC50 (read off the curve): it is the midpoint of the concentration-response curve.
